Data published in patent US20250011430A1.
Where a chain is given by its changes, count along the chain named.

T1: B7H3 on cells (B7H3 on HEK293 cells; B7H3 expressed from plasmid on HEK-293T and QT6 cells) (human) (UniProt Q5ZPR3)
T1 sequence (looked up): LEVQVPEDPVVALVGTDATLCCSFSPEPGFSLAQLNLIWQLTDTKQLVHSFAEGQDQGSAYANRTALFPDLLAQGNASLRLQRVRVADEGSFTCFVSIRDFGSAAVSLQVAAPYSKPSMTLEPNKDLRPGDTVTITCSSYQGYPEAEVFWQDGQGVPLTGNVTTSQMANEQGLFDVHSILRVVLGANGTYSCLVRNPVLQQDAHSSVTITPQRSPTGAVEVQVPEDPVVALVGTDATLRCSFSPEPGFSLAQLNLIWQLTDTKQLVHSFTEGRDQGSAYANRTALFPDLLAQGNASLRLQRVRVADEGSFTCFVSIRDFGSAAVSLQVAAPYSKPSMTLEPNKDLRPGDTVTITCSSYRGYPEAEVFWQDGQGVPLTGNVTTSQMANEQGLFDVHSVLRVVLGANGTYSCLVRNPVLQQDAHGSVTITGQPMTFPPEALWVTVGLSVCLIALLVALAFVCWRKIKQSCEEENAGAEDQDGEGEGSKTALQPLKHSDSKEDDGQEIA

B1: huM30 (antibody, from another filing, V domains shown)
VH: QVQLVQSGAEVKKPGSSVKVSCKASGYTFTNYVMHWVRQAPGQGLEWMGYINPYNDDVKYNEKFKGRVTITADESTSTAYMELSSLRSEDTAVYYCARWGYYGSPLYYFDYWGQGTLVTVSS
VL: EIVLTQSPATLSLSPGERATLSCRASSRLIYMHWYQQKPGQAPRPLIYATSNLASGIPARFSGSGSGTDFTLTISSLEPEDFAVYYCQQWNSNPPTFGQGTKVEIK
B2: humanized 26B6 (antibody, V domains shown)
VH: EVQLVQSGAEVKKPGASVKVSCKASGYTFTEYTMHWVRQAPGQGLEWIGGINPNTGGTTYNQKFNGRVTMTRDTSISTAYMELSSLRSEDTAVYYCTRPYRDDGGFHWYFDVWGQGTLVTVSS
VL: EIVLTQSPATLSLSPGERATLSCSASSSVSYMQWYQQKPGLAPRLLIYDTSKLTSGIPDRFSGSGSGTDFTLTISRLEPEDFAVYYCQQWSSNPLTFGGGTKVEIKR
B3: humanized 6F7 with light chain variable region LV1 (antibody, V domains shown)
VH: EVQLVESGGGLVQPGGSLRLSCAASGFTFTDYYMSWVRQAPGKGLEWVAFIRNKANGYTTEYSASVKGRFTISRDDSKNSLYLQMNSLRAEDTAVYYCARDSHYRPFAYWGQGTLVTVSS
VL: DIVMTQSPLSLPVTPGEPASISCKSSQSLLNSGNQNNYLTWYLQKPGQSPQLLIYLASTRDSGVPDRFSGSGSGTDFTLKISRVEAEDVGVYYCQNDYTYPLTFGGGTKVEIKR
B4: humanized 6F7 with light chain variable region LV2 (antibody, V domains shown)
VH: B3 VH
VL: DIVMTQSPDSLAVSLGERATINCKSSQSLLNSGNQNNYLTWYQQKPGQPPKLLIYLASTRDSGVPDRFSGSGSGTDFTLTISSLQAEDVAVYYCQNDYTYPLTFGGGTKVEIKR
B5: anti-B7H3 antibody 2B8 (antibody, V domains shown)
VH: QVQLQQSGPELVRPGVSVKISCKVSGYTFTDGAMHWVKRSHAKSLEWIGIINTNSGNTNYNQKFQGKATMTVDKSSSTAYMELARLTSEDSAIYYCARGVFYYGYGAWFAYWGQGTLVTVSA
VL: DVQITQSPSYLTASPGETIIINCRASKTISNYLAWYQEKPGKTNKLLIYSGSTLQSGIPSRFSGSGSDTDFTLTISSLEPEDFAMYYCQQHHEYPLTFGAGTKLELKR
B6: anti-B7H3 antibody 26B6 (antibody, V domains shown)
VH: EVQLQQSGPELVKPGASVKISCKTSGYAFTEYTMHWVKQSQGKSLEWIGGINPNTGGTTYNQKFNGKATLTVDRSSSTAYMELRSLTSEDSAVYYCTRPYRDDGGFHWYFDVWGAGTAVTVSS
VL: QIVLTQSPAVMSTSPGEKVTMTCSASSSVSYMQWYQQKSGTSPKRWIYDTSKLTSGVPARFSGSGSGTSYSLTISSMEAEDAATYYCQQWSSNPLTFGAGTKLELKR
B7: anti-B7H3 antibody 23H1 (antibody, V domains shown)
VH: EVKLVESGGGLVQPGGSLRLSCATSGFTFTDYYMSWVRQPPGKALEWLGFIRNKVNDYTTEYSVSVKGRFTISRDNSQTILYLQMNTLRAEDSATYYCARDSPYRPFAYWGQGTLVTVSA
VL: DIVMTQSPSSLTVTAGENVTMSCKSSQTLLNNGNQKNFLTWYQQKPGQPPKLLIYLASTRESGVPDRFTGSGSGTDFTLTISSVQAEDLAVYYCQNDYTYPLTFGAGTKLELKR
B8: anti-B7H3 antibody 6F7 (antibody, V domains shown)
VH: B7 VH with V55A, D57G, V64A, R74S, N76D, T79S, P103H
VL: B7 VL with V3Q, N18K, T28S, N32S, K36N, F38Y, E61D

Each binder was assayed against human B7H3 ECD-His (human) (UniProt Q5ZPR3) (assay: ForteBio BLI).

Binder	Kd [nM]
B1	0.277
B2	0.753
B3	37
B4	14.2

What follows are binders tested against T1, B7H3 on cells (B7H3 on HEK293 cells; B7H3 expressed from plasmid on HEK-293T and QT6 cells) (human) (assay: flow cytometry on HEK293 cells).

Binder	EC50 [µg/mL]
B1	0.0974

Each binder was assayed against human B7H3 ECD-His (human) (UniProt Q5ZPR3) (assay: ForteBio BLI, antibody on AHQ sensor, 60 nM antigen, 1:1 model).

Binder	Kd [nM]
B1	0.346
B5	0.323
B6	0.435
B7	0.685
B8	0.537
